Measured values published in US10494417B2, “Peptide inhibitors of BCR-ABL oligomerization” (University of Utah Research Foundation, priority 2014, dated 2019).
“Also recorded” adds a separate entry of the source.

How the values were obtained:
K562 cells = assay: Colony forming assay of transfected K562 cells; type: cell-based, human; settings: for colony formation (transformative ability), in words: construct delivered as a gene by transfection, vs EGFP (and WT) control
Protocol: Both EGFP and EGFP-CC^mut3 were transfected into separate groups of cells on day 0. One day following transfection, 1.0×10^6 cells per treatment group were collected and re-suspended in 1.0 mL of PBS. Through serial dilutions, 1.0×10^3 cells in IMDM (Isocove's modified Dulbecco's media) with 2% FBS were seeded into methylcellulose medium in the absence of cytokines (MethoCult H4230 for K562 cells and MethoCult M3234 for p210 and p210-T315I cells) or in the presence of cytokines (MethoCult GF M3434 for parental Ba/F3 cells). Ponatinib was then added in the correct molar amounts (0, 100 pM, 1 nM, or 10 nM) to the methylcellulose medium. Colonies formed were counted after 7 days of incubation. All reagents were purchased from Stem Cell Technologies, Vancouver, BC, Canada. Assay was run three separate times (n=3) in duplicate.
Briefly, K562 or Ba/F3-p210 cells were transfected according to the protocol above. One day following transfection, 1.0×10^6 cells per transfection group were collected and re-suspended in sterile PBS. […] Finally, 1.1 mL of cell/methylcellulose mixture was seeded in duplicate and allowed to grow at 37° C. and 5% CO2 for 7 days. Colony formation was assessed by counting colonies in two 200 μm2 areas on the plate. Experiments were performed once in duplicate (n=1 in duplicate). All kit reagents and media were purchased from Stem Cell Technologies (Vancouver, BC, Canada).

[1] = test system: CML CD34+ cells expressing BCR-ABL1T315I; assay: Liquid culture of primary T315I CML cells; type: cell-based, human; settings: CC^mut3 or increasing concentrations of ponatinib (FIG. 28C)
Protocol: (§1) Cell proliferation was assessed using the CellTiter 96® AQueous One Solution Cell Proliferation Assay (MTS assay, Promega) according to manufacturer instructions. Briefly, 5,000 viable cells were added to a single well in 96-well plate in 100 μL RPMI1640. Three independent samples were seeded in duplicate for each time point. […] In some experiments, cell proliferation was assessed using a Neubauer chamber and trypan blue dye exclusion.

[2] = test system: Ba/F3 cells expressing native BCR-ABL1; assay: Proliferation of transfected Ba/F3 cells with native p210 BCR-ABL1 (MTS assay); type: cell-based, mouse; settings: CCmut3 vs EV; for reduction of proliferation: 96 h
Protocol: Stable recombinant Ba/F3 cells transduced with wild type p210 BCR-ABL1 (Daley, G. Q., et al. (1991) Proc. Natl. Acad. Sci. U.S.A. 88, 11335-11338), the kinase domain mutants p210^T315I p210^[…], or the compound mutant p210^E255V/T315I were as previously described (La Rosee, P., et al. (2002) Cancer Res. 62, 7149-7153; O'Hare, T., et al. (2004) Blood 104, 2532-2539). These cells were cultured in RPMI with 10% FBS, 1% penicillin, streptomycin, glutamine, and 0.1% gentamycin (RPMI1640). Additionally 0.1% MycoZap™ (Lonza Bio, Basel, Switzerland) was added to prevent mycoplasma contamination. The non-transduced parental Ba/F3 cell line was grown in RPMI1640 supplemented with 20% WEHI-3B conditioned medium as a source of murine IL-3 (Dexter, T. M., et al. (1980) J. Exp. Med. 152, 1036-1047). Ba/F3 cells were transfected with plasmid DNA using the Amaxa nucleofection system (Lonza Bio), following the manufacturer's instructions. Cells were sorted on a BD FACSAria cytometer (BD Biosciences, San Jose, Calif.) for double-positive cells expressing mCherry and GFP then returned to RPMI1640 for subsequent experiments.
as §1
Stable Ba/F3 cells transduced with native (p210) BCR-ABL1, the kinase domain mutants BCR-ABL1T315I, BCR-ABL1E255V, or the compound mutant BCR-ABL1E255V/T315I were cultured. […]
Cell proliferation was assessed using a […] viability assay (MTS assay) utilizing CellTiter 96® AQueous One Solution Cell Proliferation Assay (Promega) according to manufacturer instructions. […] Cell growth was assessed by MTS assay at 72 and 96 h. […] In patient sample experiments, cell proliferation was assessed by trypan blue exclusion.

B1: CCmut3: modified Bcr-Abl coiled-coil domain (residues 1-72) with mutations C38A, K39E, S41R, L45D, E48R, Q60E (protein)
chain: MVDPVGFAEAWKAQFPDSEPPRMELRSVGDIEQELERAEARIRRDEQRVNQERFRMIYLETLLAKEKKSYDR
- colony formation, of EGFP control (K562 cells; 7 days after seeding, normalized to EGFP control, n=1 in duplicate): approximately 20%
- decrease in the amount of colonies formed compared to EGFP (K562 cells; CC^mut3 alone, no ponatinib, 7 days): 3 fold
- colony formation (transformative ability), in words (K562 cells): showed inhibitory activity
- colony formation (transformative ability), in words (K562 cells; listed as CC^mut3): inhibits colony formation; also recorded: significantly greater inhibition
- effect in liquid culture [1]: no effect
- reduction of proliferation [2]: > 2 fold
- reduction of proliferation ([2]; listed as CC^mut3): more than 2 fold
- proliferation, in words [2]: significantly reduced proliferation at 96 h
